Experimental data: publication doi:10.1101/2025.09.09.675230

Target: Measles virus fusion protein (F) ectodomain, prefusion-stabilized with E170G and E455G (FECT 2M) (Measles virus strain Ichinose-B95a)
Assay: cryo-EM structure

How did the stoichiometry N turn out when “Measles virus fusion protein (F) ectodomain, prefusion-stabilized with E170G and E455G (FECT 2M) (domain or fragment)” was run?
Its stoichiometry N is 3.
